How the values were obtained:
RSV A2 pre-F protein [1] = molecular target: T1, RSV A2 pre-F protein (respiratory syncytial virus (RSV) A2, UniProt P03420 26-513); assay: ELISA, plate-coated RSV A2 pre-F, anti-human IgG Fc-HRP detection
T1 construct: House-made by Vazyme; also called RSV 2A pre-F protein

RSV A2 pre-F protein [2] = molecular target: T1, RSV A2 pre-F protein; assay: ELISA, plate-coated RSV A2 pre-F, anti-human IgG Fc-HRP detection (2-fold dilutions from 1 ug/mL)

B1: F6-210 (antibody, V domains shown)
VH: QERLAQSGTEVKKPGASVKVSCRALGYTFSDYSIHWVRQAPRQGLEWMGKINTSGGTTTYAQKFQARVTLTSDTSTSTASMELSSLKIEDTAVYYCVAYERATTLAGAGASDIWGQGTLVTVSS
VL: DIVMTQSPLSLPVTPGEPASISCRSSQSLLHSDGYNYLDWYLQKPGQSPHLLIYLGSNRASGVPDRFSGSGSGTDFTLKITRVEPEDVGVYYCMQSLQTPFTFGPGTKVDVKR
notes: Human IgG1 expressed in CHO cells; heavy = VH + IgG1 constant region, light = VL + CL
EC50 (RSV A2 pre-F protein [1]): 0.028 µg/mL

B2: F6-63 (antibody, V domains shown)
VH: QVQVVESGGGVVEPGGSLSLSCAASGFSFKMHAMHWVRQAPGKGLEWVAFIPYDGSSQYYADSVKGRFTIYRDNFKNTLYLQMNSLRVEDTSLYYCARGGEEGAWSWIGYNSYMDVWGRGTAVTVSS
VL: QSALTQPASVSGSPGQSITISCSGTSSDVGGYDYVCWYQKHPGESPRLIIYDVSRRPSGVSNRFSGSKSGNTASLTISGLQAEDEADYSCSSYTSSNTLIFGGGTKLTVLG
notes: as for B1
EC50 (RSV A2 pre-F protein [2]): 0.016 µg/mL
